In patent US20190077844A1 (published 2019):

Columns and labels:
[1] = biological target: T1, Recombinant murine glypican-3 (aa 25-557) (R&D Systems) (murine, UniProt Q8CFZ4 25-557); assay: SPR 1-point off-rate, ratio to parental ADX_6077_F02
T1 construct: also called muGPC3; murine GPC3
Experimental: (§1) Surface plasmon resonance (SPR) was performed to calculate off-rates (kd) and binding affinities of α-GPC3 adnectins and tubulysin-conjugated AdxDCs using a Biacore T100 instrument (GE Healthcare). […] SPR experiments were conducted at 37° C. using HBS-P+(10 mM HEPES, 150 mM NaCl, 0.05% (v/v) Surfactant P20, pH 7.4) running buffer (GE Healthcare). […] For off-rate measurements, single 200 nM adnectin/AdxDC concentrations were injected using identical conditions. One 30s injection of 10 mM glycine pH 1.7 was used to remove bound adnectin and regenerate the GPC₃ surfaces between assay cycles.
(§2) Rate constants kₐ (kₒₙ) and kd (koff) were derived from reference-subtracted sensorgrams fit to a 1:1 binding model in Biacore T100 Evaluation Software v2.0.4 (GE Healthcare). The affinity constant, KD was calculated from the ratio of rate constants kd/kₐ.
(§3) One-hundred to one-hundred-fifty milligrams of each of the eight mutants was made, purified and alkylated as previously above. Three to five milligrams of each of eight alkylated variants at 1-3 mg/mL were subjected to SEC, DSC, GPC3 binding (SPR 1 pt off-rates), MS and HIC.

[2] = biological target: T2, Recombinant human glypican-3 (aa 1-559), His-tagged (R&D Systems) (human, UniProt P51654 25-559); assay: as above
T2 construct: also called huGPC3; human GPC3
Experimental: as §1, §2, §3

[3] = biological target: T3, Human glypican-3 on cells (Huh7, Hep3B, H446, HepG2; Hep3B xenograft tissue) (human, UniProt P51654 25-554); assay: flow cytometry on Huh7 cells, EC50 ratio to parent Adnectin
T3 construct: Endogenous GPC3 of human tumor cell lines; also called huGPC3 on cells; GPC3 receptor
Experimental: The binding of DG variants to huGPC3 in DG GPC3 AdxDCs mutants were evaluated by flow cytometry for binding to Huh7 carcinoma cells grown in DMEM media with 10% FBS. Cells were harvested using Versene, an EDTA cell dissociation solution from Lonza, Cat. #17-711E. Tumor cells (1E5 cells/reaction) were suspended in FACS buffer (PBS, 1% BSA, 0.05% Na Azide) and mixed with a serial dilution of AdxDC for one hour on ice. Cells were washed three times with FACS buffer, and bound AdxDC was detected with an in house anti-scaffold monoclonal Ab and PE-conjugated Antibody from (RnD Systems), cat#NL007, and read on a flow cytometer.

T3 sequence (P51654 25-554 limits assumed): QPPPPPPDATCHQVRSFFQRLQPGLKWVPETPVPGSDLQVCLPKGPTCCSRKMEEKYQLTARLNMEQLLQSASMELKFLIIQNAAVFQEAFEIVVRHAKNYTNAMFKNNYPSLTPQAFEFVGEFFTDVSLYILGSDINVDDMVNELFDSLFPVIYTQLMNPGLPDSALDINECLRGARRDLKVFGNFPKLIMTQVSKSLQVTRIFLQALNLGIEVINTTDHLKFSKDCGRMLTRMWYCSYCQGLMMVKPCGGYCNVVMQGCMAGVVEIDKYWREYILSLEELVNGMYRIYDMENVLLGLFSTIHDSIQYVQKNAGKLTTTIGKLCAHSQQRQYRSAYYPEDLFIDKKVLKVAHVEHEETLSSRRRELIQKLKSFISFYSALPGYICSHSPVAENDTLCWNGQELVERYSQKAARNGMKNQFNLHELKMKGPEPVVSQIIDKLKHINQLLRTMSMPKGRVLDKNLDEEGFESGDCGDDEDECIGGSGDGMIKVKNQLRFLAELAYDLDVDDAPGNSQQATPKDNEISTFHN
T2 sequence (P51654 other isoform, or with tags, fused parts or gaps): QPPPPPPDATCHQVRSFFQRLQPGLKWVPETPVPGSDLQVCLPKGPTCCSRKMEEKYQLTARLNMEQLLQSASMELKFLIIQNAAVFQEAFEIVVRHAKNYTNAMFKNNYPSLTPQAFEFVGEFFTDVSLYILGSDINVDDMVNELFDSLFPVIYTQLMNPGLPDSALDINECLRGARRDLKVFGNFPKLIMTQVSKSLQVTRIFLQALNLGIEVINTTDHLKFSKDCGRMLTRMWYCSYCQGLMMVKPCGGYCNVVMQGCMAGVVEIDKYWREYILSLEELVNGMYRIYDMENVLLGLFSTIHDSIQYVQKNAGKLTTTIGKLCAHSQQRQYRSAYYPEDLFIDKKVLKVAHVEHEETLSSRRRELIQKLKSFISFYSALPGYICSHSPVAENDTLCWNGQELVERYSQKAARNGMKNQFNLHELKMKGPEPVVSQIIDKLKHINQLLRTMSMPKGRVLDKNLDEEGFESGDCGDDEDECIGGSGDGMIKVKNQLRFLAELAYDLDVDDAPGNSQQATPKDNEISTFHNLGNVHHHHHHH
T1 sequence (Q8CFZ4 25-557 limits assumed, form in doubt): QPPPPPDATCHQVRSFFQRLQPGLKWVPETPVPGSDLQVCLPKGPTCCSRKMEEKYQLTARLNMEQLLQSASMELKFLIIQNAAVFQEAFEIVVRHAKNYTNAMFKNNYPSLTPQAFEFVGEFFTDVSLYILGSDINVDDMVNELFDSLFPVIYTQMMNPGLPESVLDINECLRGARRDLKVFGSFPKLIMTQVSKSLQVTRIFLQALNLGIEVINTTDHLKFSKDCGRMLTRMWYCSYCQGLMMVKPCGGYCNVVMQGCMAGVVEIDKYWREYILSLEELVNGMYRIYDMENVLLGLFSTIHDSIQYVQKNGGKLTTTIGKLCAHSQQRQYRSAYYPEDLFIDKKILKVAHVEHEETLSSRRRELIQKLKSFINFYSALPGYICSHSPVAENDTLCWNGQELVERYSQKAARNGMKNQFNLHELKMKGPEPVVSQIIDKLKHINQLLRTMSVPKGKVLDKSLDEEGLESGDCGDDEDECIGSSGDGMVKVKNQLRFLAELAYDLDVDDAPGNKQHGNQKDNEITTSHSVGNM

Binder	muGPC3 koff (mut/par) [1]	huGPC3 koff (mut/par) [2]	huGPC3 on cells EC50 (mutant/parent) [3]
ADX_6077_F02 DG→DA mutant, alkylated (designed binder, C-terminal cysteine alkylated, also called P1-055660) GVSDVPRDLEVVAATPTSLLISWSDDYHAHRYYRITYGETGGNSPVQEFTVPGEHVTATISGLKPGVDYTITVYAVTYDAEKAATDWSISINYRTPC	3.7 ratio mutant/parent	3.9 ratio mutant/parent	1.3 ratio mutant/parent
ADX_6077_F02 DG→DL mutant, alkylated (designed binder, C-terminal cysteine alkylated, also called P1-055671) GVSDVPRDLEVVAATPTSLLISWSDDYHAHRYYRITYGETGGNSPVQEFTVPGEHVTATISGLKPGVDYTITVYAVTYDLEKAATDWSISINYRTPC	3.1 ratio mutant/parent	3.6 ratio mutant/parent	1.7 ratio mutant/parent
ADX_6077_F02 DG→DS mutant, alkylated (designed binder, C-terminal cysteine alkylated, also called P1-055667) GVSDVPRDLEVVAATPTSLLISWSDDYHAHRYYRITYGETGGNSPVQEFTVPGEHVTATISGLKPGVDYTITVYAVTYDSEKAATDWSISINYRTPC	3.3 ratio mutant/parent	3.5 ratio mutant/parent	1.4 ratio mutant/parent
ADX_6077_F02 DG→AG mutant, alkylated (designed binder, C-terminal cysteine alkylated, also called P1-055669) GVSDVPRDLEVVAATPTSLLISWSDDYHAHRYYRITYGETGGNSPVQEFTVPGEHVTATISGLKPGVDYTITVYAVTYAGEKAATDWSISINYRTPC	5.5 ratio mutant/parent	5.9 ratio mutant/parent	1.1 ratio mutant/parent
ADX_6077_F02 DG→DV mutant, alkylated (designed binder, C-terminal cysteine alkylated, also called P1-055672) GVSDVPRDLEVVAATPTSLLISWSDDYHAHRYYRITYGETGGNSPVQEFTVPGEHVTATISGLKPGVDYTITVYAVTYDVEKAATDWSISINYRTPC	7 ratio mutant/parent	7.9 ratio mutant/parent	–

More lines, now with the values ahead:

muGPC3 koff (mut/par) [1]	huGPC3 koff (mut/par) [2]	huGPC3 on cells EC50 (mutant/parent) [3]	Binder
4.8 ratio mutant/parent	5.2 ratio mutant/parent	1.1 ratio mutant/parent	ADX_6077_F02 DG→SG mutant, alkylated (designed binder, C-terminal cysteine alkylated, also called P1-055668) VSDVPRDLEVVAATPTSLLISWSDDYHAHRYYRITYGETGGNSPVQEFTVPGEHVTATISGLKPGVDYTITVYAVTYSGEKAATDWSISINYRTPC
5.1 ratio mutant/parent	5.4 ratio mutant/parent	1.6 ratio mutant/parent	ADX_6077_F02 DG→EG mutant, alkylated (designed binder, C-terminal cysteine alkylated, also called P1-055673) GVSDVPRDLEVVAATPTSLLISWSDDYHAHRYYRITYGETGGNSPVQEFTVPGEHVTATISGLKPGVDYTITVYAVTYEGEKAATDWSISINYRTPC
12 ratio mutant/parent	14 ratio mutant/parent	–	ADX_6077_F02 DG→GG mutant, alkylated (designed binder, C-terminal cysteine alkylated, also called P1-055670) GVSDVPRDLEVVAATPTSLLISWSDDYHAHRYYRITYGETGGNSPVQEFTVPGEHVTATISGLKPGVDYTITVYAVTYGGEKAATDWSISINYRTPC
